The assay concerns the target BjVIII, myotoxic Lys49-PLA2 from Bothrops jararacussu venom (Bothrops jararacussu). Put plainly: tricine SDS-PAGE under non-reducing conditions.

As for “BjVIII, myotoxic Lys49-PLA2 from Bothrops jararacussu venom (natural protein)”, the stoichiometry N turned out to be 2.

Broadly, the stoichiometry N is a count of units in the complex or per binding partner.

Source of the values: paper PMC2635704.
